Columns and labels:
FAM19A5 protein [1] = target: T1, FAM19A5 protein (Homo sapiens, UniProt Q7Z5A7); assay: competitive inhibition ELISA; competitor: coated LRRC4B(453-576, TT/TT)-hFc
FAM19A5 protein [2] = target: T1, FAM19A5 protein; assay: ELISA, coated hFc-conjugated ectodomain (100 nM/well), rFAM19A5 titrated 0.005-10 nM
FAM19A5 protein [3] = target: T1, FAM19A5 protein; assay: Co-immunoprecipitation of FLAG-tagged LRRC4 family deletion constructs/fragments with recombinant FAM19A5 in HEK293 cells; format: binding; conditions: HEK293 cells expressing FLAG-tagged construct, recombinant FAM19A5 1 μM 30 minutes; IP anti-FLAG, blot anti-FAM19A5 (3-2)
Method: To understand the interaction between FAM19A5 and members of the LRRC4 protein family, HEK293 cells were modified to express a FLAG-tagged member of the LRRC4 protein family, i.e., LRRC4C protein, LRRC4 protein, or LRRC4B protein. Then, the HEK293 cells or primary cortical neurons were treated with recombinant FAM19A5 protein (1 μM) for 30 minutes, and the binding between FAM19A5 protein and the different members of the LRRC4 protein family was assessed using both co-immunoprecipitation and immunofluorescence assays.
For the co-immunoprecipitation assay, cell lysates from the different FAM19A5-treated HEK293 cells were collected and immunoprecipitated with an anti-FLAG antibody, anti-FAM19A5 (1-65) antibody, or a human IgG antibody (control). Immunoprecipitated proteins were immunoblotted with anti-FLAG and anti-FAM19A5 (3-2) antibodies. For the immunofluorescence assay, the HEK293 cells treated with the recombinant FAM19A5 protein were immunostained with anti-FAM19A5 (3-2) (to detect FAM19A5 protein expression) and anti-FLAG antibodies (to detect member of the LRRC4 protein family). The primary cortical neurons treated with the recombinant FAM19A5 protein were immunostained with anti-FAM19A5 (3-2) and anti-LRRC4B antibodies. The nuclei were stained with Hoechst33342 (blue).
To determine the specific motif or domain of the LRRC4B protein that is responsible for the binding to a FAM19A5 protein, various FLAG-tagged LRRC4B deletion constructs were generated (see Table 6 below). HEK293 cells were transfected with the different deletion constructs and then treated with recombinant FAM19A5 protein as described in Example 1. Then, the cell lysates from the different HEK293 cells were immunoprecipitated with the anti-FLAG antibody. The immunoprecipitated proteins were immunoblotted with anti-FLAG and anti-FAM19A5 (3-2) antibodies.
As described in Example 2, all members of the LRRC4 protein family were capable of binding to FAM19A5 protein to varying degrees. Therefore, to compare the bindings domains, the amino acid sequences of the LRRC4B, LRRC4, and LRRC4C proteins were aligned. […] Therefore, to assess whether the corresponding positions of LRRC4 and LRRC4C were important in the binding of these proteins to FAM19A5 protein, cDNAs encoding either (i) LRRC4C protein fragment (amino acids 354-527 of SEQ ID NO: 3; SEQ ID NO: 66) or (ii) LRRC4 protein fragment (amino acids 353-527 of SEQ ID NO: 1; SEQ ID NO: 67) were constructed (see Table 7). HEK293 cells were transfected to express either of the protein fragments and then treated with recombinant FAM19A5 protein as described in Example 1. Then, the cell lysates from the different HEK293 cells were immunoprecipitated with the anti-FLAG antibody. The immunoprecipitated proteins were immunoblotted with anti-FLAG and anti-FAM19A5 (3-2) antibodies.
Target sequence in this assay (Q7Z5A7 44-132): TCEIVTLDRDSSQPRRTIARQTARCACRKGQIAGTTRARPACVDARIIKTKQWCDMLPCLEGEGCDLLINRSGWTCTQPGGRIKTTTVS

[4] = target: binding of FAM19A5 protein to full-length ectodomain of the LRRC4B protein (amino acids 36-576 of SEQ ID NO: 2) (Homo sapiens, UniProt Q7Z5A7); assay: Competitive inhibition assay, plate coated with full-length ectodomain of LRRC4B (amino acids 36-576); conditions: increasing concentrations; FAM19A5 5 ng/mL; 100 nM coat
Chain of binding of FAM19A5 protein to full-length ectodomain of the LRRC4B protein (amino acids 36-576 of SEQ ID NO: 2) (Q7Z5A7 44-132): as above
Method: Next, to further assess the role that the binding domain of the LRRC4B protein has on the interaction between FAM19A5 protein and members of the LRRC4 protein family, a competitive inhibition assay was used to determine whether different LRRC4B deletion constructs from Example 2 could inhibit the binding of FAM19A5 to the full-length ectodomain of the LRRC4B protein (i.e., amino acids 36-576 of SEQ ID NO: 2; SEQ ID NO: 5). Briefly, 100 nM of the full-length ectodomain of the LRRC4B protein was used to coat a plate, and then recombinant FAM19A5 protein (5 ng/mL) was added to the plate in combination with the following LRRC4B deletion constructs (increasing concentrations): (1) LRRC4B (453-576) (i.e., construct #11 in Table 6); (2) LRRC4B (453-576) mutant (comprises alanine substitutions at positions 488 and 489 of SEQ ID NO: 2; SEQ ID NO: 16); (3) LRRC4B (484-576) (i.e., construct #12 in Table 6); (4) LRRC4B (482-576); (5) LRRC4B (482-497); and (6) LRRC4B (498-576). The plates were incubated at 37° C., and then, the amount of FAM19A5 bound to the coated LRRC4B ectodomain protein was measured using HRP-conjugated anti-FAM19A5 (1-65) antibody.
(§1) As described in Example 3, there appeared to be much similarity in the binding domains of the different members of the LRRC4 family. […] Then, recombinant FAM19A5 protein (5 ng/mL) was added in combination with one of the following: (i) LRRC4B (484-576) protein fragment, (ii) LRRC4B (453-576, AA) protein fragment, and (iii) synthetic FB-20 peptide. The plates were incubated at 37° C., and then, the amount of FAM19A5 protein bound to the coated LRRC4, LRRC4B, or LRRC4C proteins was measured using anti-FAM19A5 (1-65) antibody.
Next, to assess whether polypeptides comprising the binding domains of LRRC4 or LRRC4C proteins can have similar inhibitory effects on LRRC4B protein binding, the following synthetic peptides were constructed: (1) FBC4-23 (contains the binding domain of the LRRC4 protein, i.e., YSFFTTVTVETTE); and (2) FBC4C-23 (contains the binding domain of the LRRC4C protein, i.e., FSYFSTVTVETME). Then, the ability of the peptides to inhibit the binding of LRRC4 protein family members to FAM19A5 protein was assessed using a competitive inhibition assay. Briefly, plates were coated with 100 nM of either LRRC4B protein fragment #1 (amino acids 36-576 of SEQ ID NO: 2; SEQ ID NO: 5) or LRRC4B protein fragment #2 (amino acids 453-576 of SEQ ID NO: 2; SEQ ID NO: 7). Then, recombinant FAM19A5 protein (5 ng/ml for plates coated with LRRC4B fragment #1; and 1 ng/mL for plates coated with LRRC4B fragment #2) was added to the plates in combination with 20 nM of the FBC4-23, FBC4C-23, and FB-20 peptides. The plates were incubated at 37° C. and then, the amount of FAM19A5 protein bound to the coated LRRC4B protein fragments was assessed using HRP-conjugated anti-FAM19A5 (1-65) antibody.
Next, to determine the minimal sequence required to inhibit the interaction of FAM19A5 and members of the LRRC4 protein family, ten FB-20 peptide variants were constructed by serially deleting one or more amino acids from the N-terminus or C-terminus of the FB-20 peptide. Then, a competitive inhibition assay was used to assess the ability of the different FB-20 peptide variants to inhibit the interaction between FAM19A5 and LRRC4B protein. Again, plates were coated with 100 nM of either LRRC4B protein fragment #1 (amino acids 36-576 of SEQ ID NO: 2; SEQ ID NO: 5) or LRRC4B protein fragment #2 (amino acids 453-576 of SEQ ID NO: 2; SEQ ID NO: 7). Then, recombinant FAM19A5 protein (5 ng/ml for plates coated with LRRC4B fragment #1; and 1 ng/mL for plates coated with LRRC4B fragment #2) was added to the plates in combination with 20 nM of the different peptides described above. After incubating the plates at 37° C., the amount of FAM19A5 protein bound to the coated LRRC4B protein fragments was assessed using HRP-conjugated anti-FAM19A5 (1-65) antibody. […]

[5] = target: binding of FAM19A5 protein to full-length ectodomain of LRRC4 protein (Homo sapiens, UniProt Q7Z5A7); assay: Competitive inhibition assay, plate coated with full-length ectodomain of LRRC4; conditions: FAM19A5 5 ng/mL; 100 nM/well coat
Chain of binding of FAM19A5 protein to full-length ectodomain of LRRC4 protein (Q7Z5A7 44-132): as above
Method: as §1

[6] = target: binding of FAM19A5 protein to full-length ectodomain of LRRC4C protein (Homo sapiens, UniProt Q7Z5A7); assay: Competitive inhibition assay, plate coated with full-length ectodomain of LRRC4C; conditions: FAM19A5 5 ng/mL; 100 nM/well coat
Chain of binding of FAM19A5 protein to full-length ectodomain of LRRC4C protein (Q7Z5A7 44-132): as above
Method: as §1

[7] = target: T2, FAM19A5 isoform 2 - LRRC4B protein complex in HEK293 cells (Homo sapiens, UniProt Q7Z5A7); assay: Immunofluorescence: dissociation of FAM19A5 from full-length LRRC4B in HEK293 cells; format: cell-based; conditions: HEK293 cells expressing FAM19A5 isoform 2 and LRRC4B, treated 30 minutes
T2 construct: expressed in transfected cells; host or cells: HEK293
T2 sequence (Q7Z5A7 1-125 isoform Q7Z5A7-2, one chain of several): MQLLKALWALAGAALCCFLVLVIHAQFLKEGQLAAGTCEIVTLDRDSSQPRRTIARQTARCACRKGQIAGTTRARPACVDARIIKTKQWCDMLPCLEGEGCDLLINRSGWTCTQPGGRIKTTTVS
Method: Since LRRC4B protein fragments containing the binding domain described in Example 2 (e.g., LRRC4B (453-576); i.e., construct #11 in Table 6) was able to bind to FAM19A5 protein with high affinity, it was next assessed whether such protein fragments could compete with naturally existing LRRC4B protein for binding to FAM19A5 protein, and thereby, dissociate the FAM19A5-LRRC4 protein family complex. Briefly, HEK293 cells expressing both FAM19A5 isoform 2 and LRRC4B protein were treated in vitro for 30 minutes with either LRRC4B (453-576)-hFc or mutant LRRC4B (453-576)-hFc (includes alanine substitutions at positions 488 and 489 of SEQ ID NO: 2; SEQ ID NO: 16) protein fragments. Then, cells were immunostained with anti-FAM19A5 (1-65) and anti-LRRC4B antibodies to determine the expression of FAM19A5 and full-length LRRC4B proteins, respectively. The hFc-fused LRRC4B protein fragments were determined using an anti-hIgG antibody. The nuclei were stained with Hoechst 33342.

Row | Molecule | EC50 (FAM19A5 protein [2]) [nM] | inhibition of FAM19A5 binding to coated full-length LRRC4B ectodomain protein (in words) [4] | inhibition of FAM19A5 binding to coated LRRC4 protein (in words) [5] | inhibition of FAM19A5 binding to coated LRRC4C protein (in words) [6] | other results
1 | GYTYFTTVTVEWYETQPGEEA [FB-21 (W12Y13)] | – | – | – | – | fold increase in the ability to dissociate the LRRC4B-FAM19A5 complex, compared with the wild-type FB-21 (FAM19A5 protein [1]): 2.9 fold
2 | full-length ectodomain of LRRC4 protein (amino acid residues 39-527 of SEQ ID NO: 1) conjugated to human Fc (Fc fusion, not shown: a dimerising Fc or GST) ASAGPQNCPSVCSCSNQFSKVVCTRRGLSEVPQGIPSNTRYLNLMENNIQMIQADTFRHLHHLEVLQLGRNSIRQIEVGAFNGLASLNTLELFDNWLTVIPSGAFEYLSKLRELWLRNNPIESIPSYAFNRVPSLMRLDLGELKKLEYISEGAFEGLFNLKYLNLGMCNIKDMPNLTPLVGLEELEMSGNHFPEIRPGSFHGLSSLKKLWVMNSQVSLIERNAFDGLASLVELNLAHNNLSSLPHDLFTPLRYLVELHLHHNPWNCDCDILWLAWWLREYIPTNSTCCGRCHAPMHMRGRYLVEVDQASFQCSAPFIMDAPRDLNISEGRMAELKCRTPPMSSVKWLLPNGTVLSHASRHPRISVLNDGTLNFSHVLLSDTGVYTCMVTNVAGNSNASAYLNVSTAELNTSNYSFFTTVTVETTEISPEDTTRKYKPVPTTSTGYQPAYTTSTTVLIQTTRVPKQVAVPATDTTDKMQTSLDEVMKTTK | 0.48 | – | – | – | –
3 | full-length ectodomain of LRRC4B protein (amino acids 36-576 of SEQ ID NO: 2) conjugated to human Fc (Fc fusion, not shown: a dimerising Fc or GST) AGGGGVAVTSAAGGGSPPATSCPVACSCSNQASRVICTRRDLAEVPASIPVNTRYLNLQENGIQVIRTDTFKHLRHLEILQLSKNLVRKIEVGAFNGLPSLNTLELFDNRLTTVPTQAFEYLSKLRELWLRNNPIESIPSYAFNRVPSLRRLDLGELKRLEYISEAAFEGLVNLRYLNLGMCNLKDIPNLTALVRLEELELSGNRLDLIRPGSFQGLTSLRKLWLMHAQVATIERNAFDDLKSLEELNLSHNNLMSLPHDLFTPLHRLERVHLNHNPWHCNCDVLWLSWWLKETVPSNTTCCARCHAPAGLKGRYIGELDQSHFTCYAPVIVEPPTDLNVTEGMAAELKCRTGTSMTSVNWLTPNGTLMTHGSYRVRISVLHDGTLNFTNVTVQDTGQYTCMVTNSAGNTTASATLNVSAVDPVAAGGTGSGGGGPGGSGGVGGGSGGYTYFTTVTVETLETQPGEEALQPRGTEKEPPGPTTDGVWGGGRPGDAAGPASSSTTAPAPRSSRPTEKAFTVPITDVTENALKDLDDVMKTTK | 0.64 | – | – | – | –
4 | LRRC4B (484-576): LRRC4B ectodomain fragment, amino acids 484-576 of SEQ ID NO: 2 (protein) YTYFTTVTVETLETQPGEEALQPRGTEKEPPGPTTDGVWGGGRPGDAAGPASSSTTAPAPRSSRPTEKAFTVPITDVTENALKDLDDVMKTTK | – | also able to inhibit the interaction | able to inhibit FAM19A5 protein from binding | able to inhibit FAM19A5 protein from binding | binding to FAM19A5 protein (co-immunoprecipitation) (FAM19A5 protein [3]): able to bind to the FAM19A5 protein with varying degree
5 | LRRC4B mutant: LRRC4B (453-576) with alanine substitutions at positions 488 and 489 of SEQ ID NO: 2 (protein, human Fc) VSAVDPVAAGGTGSGGGGPGGSGGVGGGSGGYTYFAAVTVETLETQPGEEALQPRGTEKEPPGPTTDGVWGGGRPGDAAGPASSSTTAPAPRSSRPTEKAFTVPITDVTENALKDLDDVMKTTK | – | much inferior in their ability to inhibit the interaction | minimal effect | minimal effect | dissociation of FAM19A5 from full-length LRRC4B protein [7]: remained largely bound to the full-length LRRC4B protein
